Assay results as given in patent publication US12139520B2 (priority 2020, dated 2024).
Numbered stars: 1 amine (or outer) side, 2 acyl side, 3 side chain; on linkers, the order of the positions; unused ones are H or OH. Bridge positions count the residues as written; N and C are the ends. Square brackets hold non-standard residues; d marks the D form. Side chains are listed from the residue outwards. Ends that are not written are not given here. * marks the point of attachment. C20 diacid = O=C(O)CCCCCCCCCCCCCCCCCCC(=O)*; γGlu = O=C(O)[C@H](CCC(=O)[*:2])N[*:1]; Hyp = O=C(O)[C@@H]1C[C@@H](O)CN1; Trx = NC[C@H]1CC[C@H](C(=O)O)CC1; Cit = NC(=O)NCCC[C@H](N)C(=O)O; AEEA = NCCOCCOCC(=O)O

T1: hAMY3R (human, UniProt P30988)
T1 sequence 1: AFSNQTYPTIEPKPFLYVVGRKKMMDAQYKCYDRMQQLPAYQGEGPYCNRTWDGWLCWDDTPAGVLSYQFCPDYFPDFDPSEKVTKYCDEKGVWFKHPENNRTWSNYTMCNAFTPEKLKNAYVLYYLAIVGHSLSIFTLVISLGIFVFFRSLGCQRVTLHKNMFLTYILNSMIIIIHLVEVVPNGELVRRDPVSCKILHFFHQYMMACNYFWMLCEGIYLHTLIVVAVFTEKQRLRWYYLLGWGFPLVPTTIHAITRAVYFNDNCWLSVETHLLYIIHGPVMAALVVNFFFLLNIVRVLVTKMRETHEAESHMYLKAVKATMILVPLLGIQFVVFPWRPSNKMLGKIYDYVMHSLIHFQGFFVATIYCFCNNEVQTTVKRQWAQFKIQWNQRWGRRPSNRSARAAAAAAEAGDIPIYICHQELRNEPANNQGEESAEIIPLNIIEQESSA
T1 sequence 2: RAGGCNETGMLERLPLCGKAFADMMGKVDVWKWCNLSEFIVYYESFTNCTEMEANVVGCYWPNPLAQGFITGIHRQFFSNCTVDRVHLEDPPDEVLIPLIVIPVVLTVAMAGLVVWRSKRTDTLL


Assays:
hAMY3R = biological target: T1, hAMY3R; assay: cell-based or functional assay
hAM1R = hAM1R (human, UniProt Q16602); assay: cell-based or functional assay

Binder	hAMY3R EC50 (cAMP) (hAMY3R)	hAM1R EC50 (cAMP) (hAM1R)
{C20 diacid-γGlu}-KCNTLTCTVQRLAHQIYQFTDKDKDNVAPPTNVGSNG[Hyp]-NH2 (disulfide 2-7 (inferred); ends not checked) [SEQ ID NO: 225]	0.186 nM	> 5000 nM
KCNTATCTVQRLAHQIYQFTDKDADNVAPPTNVGSNG[Hyp]-NH2 (disulfide 2-7 (inferred); ends not checked) [SEQ ID NO: 25]	0.008 nM	> 5000 nM
GCRTGTCTVQRLAHQIYQFTDKFKDNVAPRSKISPQA[Hyp]-NH2 (disulfide 2-7 (inferred); ends not checked) [SEQ ID NO: 218]	0.169 nM	> 5000 nM
GCRFGTCTVQRLAHQIYQFTDKDKDNVAPRSNIGPQG[Hyp]-NH2 (disulfide 2-7 (inferred); ends not checked) [SEQ ID NO: 229]	0.207 nM	2980 nM
KCNTATCTVQRLAHQIYQFTAKDKDNVAPPTNVGSNG[Hyp]-NH2 (disulfide 2-7 (inferred); ends not checked) [SEQ ID NO: 24]	0.008 nM	> 5000 nM
GCRTGTCTVQRLAHQIYQFTNKDKDNVAPRSKISPQH[Hyp]-NH2 (disulfide 2-7 (inferred); ends not checked) [SEQ ID NO: 219]	0.171 nM	4250 nM
{C20 diacid-Trx-γGlu-AEEA-AEEA}-K([AEEA-AEEA-γGlu-Trx-C20 diacid])CNTATCTVQRLAEQIYQFTDKDKDNVAPPTNVGSNG[Hyp] (disulfide 2-7 (inferred); ends not checked) [SEQ ID NO: 221]	0.184 nM	> 5000 nM
GCRMGTCTVQRLAHQIYQFTDKDKDNVAPSSKISPQT[Hyp]-NH2 (disulfide 2-7 (inferred); ends not checked) [SEQ ID NO: 222]	0.184 nM	> 5000 nM
GCRTGTCTVQRLAHQIYQFTDKDKDNVAPRSNVSPQG[Hyp]-NH2 (disulfide 2-7 (inferred); ends not checked) [SEQ ID NO: 224]	0.186 nM	2980 nM
KCNTATCTVQRLAHQIYQFADKDKDNVAPPTNVGSNG[Hyp]-NH2 (disulfide 2-7 (inferred); ends not checked) [SEQ ID NO: 23]	0.008 nM	> 5000 nM
GCRTGTCTVQRLAHQIYQFTNKDKDNVAPRSKISPQTW [SEQ ID NO: 226]	0.186 nM	> 5000 nM
GCRTGTCTVQRLAHQIYQFTDKFKDNVAPRSKISPQTY [SEQ ID NO: 230]	0.208 nM	> 5000 nM
GCRTGTCTVQRLAHQIHQFTDKDKDNVAPRSKISPQT[Hyp]-NH2 (disulfide 2-7 (inferred); ends not checked) [SEQ ID NO: 228]	0.205 nM	> 5000 nM
GCRTGTCTVQRLAHQIHQFTNKDKDNVAPRSKISPQT[Hyp]-NH2 (disulfide 2-7 (inferred); ends not checked) [SEQ ID NO: 227]	0.187 nM	4570 nM
GCRTGTCTVQRLAHQIYQFTNKDKDNVAPRSKISPQW[Hyp]-NH2 (disulfide 2-7 (inferred); ends not checked) [SEQ ID NO: 220]	0.182 nM	> 5000 nM
{C20 diacid-γGlu}-GCRFGTCTVQRLAHFLYQFTDKDKDNVAPRTKVGSNGY-NH2 (disulfide 2-7 (inferred); ends not checked) [SEQ ID NO: 223]	0.186 nM	47.7 nM
GCRFGTCTVQRLAHQLYQFTDKDKDNVAPRSKISPQT[Hyp]-NH2 (disulfide 2-7 (inferred); ends not checked) [SEQ ID NO: 217]	0.167 nM	> 5000 nM

More lines, now with the values ahead:

hAMY3R EC50 (cAMP) (hAMY3R)	hAM1R EC50 (cAMP) (hAM1R)	Binder
0.227 nM	> 5000 nM	KCNTATCATQRLANFLVQFTDKDKDNVAPRSKISPQGY [SEQ ID NO: 234]
0.004 nM	> 5000 nM	KCNTSTCTVA[Cit]LADQITQFSDKDKANVSPPTEVGPNS[Hyp]-NH2 (disulfide 2-7 (inferred); ends not checked) [SEQ ID NO: 247]
0.209 nM	> 5000 nM	{C20 diacid-γGlu}-KCNTYTCTVQRLAHQIYQFTDKDKDNVAPPTNVGSNG[Hyp]-NH2 (disulfide 2-7 (inferred); ends not checked) [SEQ ID NO: 231]
0.006 nM	> 5000 nM	KCNTSTCTVA[Cit]LADQITQFSNKDKAQVSPPTEVGPNS[Hyp]-NH2 (disulfide 2-7 (inferred); ends not checked) [SEQ ID NO: 244]
0.018 nM	3340 nM	KCNTATCTVQ[Cit]LAAQIYQFTDKDKDNVAPPTNVGSNG[Hyp]-NH2 (disulfide 2-7 (inferred); ends not checked) [SEQ ID NO: 243]
0.234 nM	2240 nM	GCRTGTCTVQRLAHQIYQFTDKFKDNVAPRSKISPQM[Hyp]-NH2 (disulfide 2-7 (inferred); ends not checked) [SEQ ID NO: 236]
0.22 nM	> 5000 nM	KCNTATCTVQRLAEQIYQFTDKDKDNVAPPTNVGSNG[Hyp]-NH2 (disulfide 2-7 (inferred); not fully specified (N-terminus); ends not checked; also: N-terminal Lys carries two C20DA-OEG-γGlu-OEG arms ((...)2-K)) [SEQ ID NO: 233]
0.235 nM	> 5000 nM	GCRTGTCTVQRLAHQIYQFTNKDKDNVAPRSKISPQF[Hyp]-NH2 (disulfide 2-7 (inferred); ends not checked) [SEQ ID NO: 238]
0.213 nM	> 5000 nM	GCRTGTCTVQRLAHQIYQFTNKDKDNVAPRSKISPQQ[Hyp]-NH2 (disulfide 2-7 (inferred); ends not checked) [SEQ ID NO: 232]
0.235 nM	4250 nM	GCRTGTCTVQRLAHQIYQFTNKDKDNVAPRSKISPQTM [SEQ ID NO: 237]
0.248 nM	> 5000 nM	GCRTGTCTVQRLAHQIYQFTNKDKDNVAPRSKISPQTR [SEQ ID NO: 242]
0.236 nM	> 5000 nM	GCRTGTCTVQRLAHQIYQFTDKFKDNVAPRSKISPQTF [SEQ ID NO: 239]
0.242 nM	2290 nM	GCRTGTCTVQRLAHQIYQFTDKFKDNVAPRSKISPQTA [SEQ ID NO: 241]
0.233 nM	1420 nM	GCRTGTCTVQRLAHQIYQFTDKFKDNVAPRSKISPQTP [SEQ ID NO: 235]
0.24 nM	> 5000 nM	GCRFGTCTVQRLAHQIYQFTDKDKDNVAPSSKISPQT[Hyp]-NH2 (disulfide 2-7 (inferred); ends not checked) [SEQ ID NO: 240]
0.017 nM	> 5000 nM	RCNASTCTVN[Cit]LADQITQFSNKDKAQVSPPTEVGPNS[Hyp]-NH2 (disulfide 2-7 (inferred); ends not checked) [SEQ ID NO: 245]
0.01 nM	> 5000 nM	KCNTATCTVQ[Cit]LAHQIAQFTDKDKDNVAPPTNVGSNG[Hyp]-NH2 (disulfide 2-7 (inferred); ends not checked) [SEQ ID NO: 246]
